Experimental findings from patent US11739333B2, “Regulation of gene expression by aptamer-modulated RNase p cleavage” (MeiraGTx UK II Limited, priority 2017, dated 2023) are described below.

Entries after “also recorded” stand apart in the source; their conditions may differ.

In the series the test system is luciferase target gene expression in HEK 293 cells (aptamer-modulated RNase P cleavage of mRNA). The series can be described thus: Firefly luciferase assay of transfected cells treated with or without aptamer ligand. It counts as cell-based. As to conditions: for induction fold of luciferase expression, guanosine-treated versus solvent control-treated cells: 500 μM guanosine vs 0.5% DMSO; for reduction in luciferase activity compared to control construct (Con8): absence of guanosine; for luciferase activity as % of control construct: presence of guanosine (500 μM). Here is the method: Firefly luciferase assay of cultured cells: 3.5×10^4 HEK 293 cells were plated in 96-well flat bottom plate the day before transfection. Plasmid DNA (500 ng) was added to a tube or a 96-well U-bottom plate. Separately, TransIT-293 reagent (Minis; 1.4 μL) was added to 50 μL opti-mem I media (Life Technologies) and allowed to sit for 5 minutes at room temperature (“RT”). Then, 50 μL of this diluted transfection reagent was added to the DNA, mixed, and incubated at RT for 20 min. Finally, 7 μL of this solution was added to a well of cells in a 96-well plate. 4 hours after transfection, medium containing transfection solution was replaced with fresh medium. 24 hours after media change, plates were removed from the incubator, and equilibrated to RT for several minutes on a lab bench, then aspirated. Glo-lysis buffer (Promega, 100 μL, RT) was added, and the plates allowed to remain at RT for at least 5 minutes. Then, the well contents were mixed by 50 μL trituration, and 20 μL of each sample was mixed with 20 μL of bright-glo reagent (Promega) that had been diluted to 10% in glo-lysis buffer. 96 wells were spaced on an opaque white 384-well plate. Following a 5-min incubation at RT, luminescence was measured using a Tecan machine with 500 mSec read time. The luciferase activity was expressed as mean arbitrary light unit (ALU)±S.D.
Plasmid constructs: oligonucleotide fragments containing mascRNA and guanine aptamer sequences (Mandal, M, et al., Cell 113, 577-586 (2003), incorporated herein by reference) were synthesized (IDT) and cloned into a luciferase (Luci) expression construct (Con8) in the 3′ UTR region using compatible restriction sites BamHI and XhoI. All the constructs were verified by DNA sequencing (Genewiz).
Firefly luciferase assay of cultured cells: cells were transfected as described in Example 1. Four hours after transfection, medium containing transfection solution was replaced by medium with either 0.5% DMSO as solvent control or 500 μM guanosine (Sigma) as aptamer ligand. Twenty-two to twenty-four hours after treatment, a luciferase assay was performed as described in Example 1.
Plasmid construction: a DNA fragment containing sequences for the guanine aptamer xpt-G and human arginine pre-tRNA (Nashimoto M. N. et al. Long 5′ leaders inhibit removal of a 3′ trailer from a precursor tRNA by mammalian tRNA 3′ processing endoribonuclease. Nucleic Acids Research, 1999; 27(13): 2770-2776) were synthesized (IDT). The synthesized DNA fragments were digested with BamHI and XhoI restriction enzymes and cloned into the Con8 construct digested with the same restriction enzymes. Construct sequences were verified by DNA sequencing (Genewiz).
Plasmid construction: a DNA fragment containing sequences for the adenine aptamer ydhl-A (M. Mandal and R. R. Breaker, Adenine riboswitches and gene activation by disruption of a transcription terminator. Nature Structural & Molecular Biology. 2004; 11: 29-35, incorporated herein by reference) or theophylline aptamer (G. R. Zimmerman, et al. Interlocking structural motifs mediate molecular discrimination by a theophylline-binding RNA. Nature Structural Biology. 1997; 4: 644-649, incorporated herein by reference), and mascRNA sequence were synthesized (IDT). The synthesized DNA fragments were digested with BamHI and XhoI restriction enzymes and cloned into Con8 digested with the same restriction enzymes. Construct sequences were verified by DNA sequencing (Genewiz).
Four hours after transfection, the media was aspirated, and new media with NaOH (1 mM) as solvent or 1 mM adenine (Calbiochem), or 3 mM theophylline (Sigma) was added. The induction fold was expressed as the quotient of luciferase activity obtained in the presence of aptamer ligand divided by the value obtained in the absence of the aptamer ligand. […]

B1: MG1: SEQ ID NO: 1; guanine aptamer immediately downstream of mascRNA in luciferase 3' UTR (nucleic acid)
chain: CCTCATAAAGGCCAAGAAGGGCGGAAAGATCGCCGTGTAAGGATCCAAGACGAGCTGTACAAGTAAAGCGGCCAATTCGGACAAAAACGAGACGCTGGTGGCTGGCACTCCTGGTTTCCAGGACGGGGTTCAAGTCCCTGCGGTGTCTATAATCGCGTGGATATGGCACGCAAGTTTCTACCGGGCACCGTAAATGTCCGACTAGACACCATCTAGAGTCGACCTGCAGGCATGCAAGCTTCAGCTGCTCGAGGGCCCAGATCTAATTCACCCCACCAGTGCAGGCTGCCTATCAG
In the case of B1, the “induction fold of luciferase expression, guanosine-treated versus solvent control-treated cells” value (from here on “induction fold of luciferase expression”) came out at 2.1 fold; the “reduction in luciferase activity compared to control construct (Con8)” value (“reduction in luciferase activity” below) is listed as 32%; the “luciferase activity as % of control construct” value worked out at 100%. In addition, the “luciferase activity as % of Luci control construct” value (absence of guanosine (DMSO solvent control)) is “about 68%”.

B2: GM3: SEQ ID NO: 4; 5-nt sequence between effector region stem and acceptor stem of mascRNA (nucleic acid)
chain: CCTCATAAAGGCCAAGAAGGGCGGAAAGATCGCCGTGTAAGGATCCAAGACGAGCTGTACAAGTAAAGCGGCCGGACAAAATAATCGCGTGGATATGGCACGCAAGTTTCTACCGGGCACCGTAAATGTCCGACTTTTGTCCAACGAGACGCTGGTGGCTGGCACTCCTGGTTTCCAGGACGGGGTTCAAGTCCCTGCGGTGTCTTTGCTTGGATCGGCCGCGACTCTAGAGTCGACCTGCAGGCATGCAAGCTTCAGCTGCTCGAGGGCCCAGATCTAATTCACCCCACCAGTGCAGGCTGCCTATCAG
In the case of B2, the “luciferase expression upon guanosine treatment” value (guanosine treatment) is recorded as “no increase in luciferase expression; also recorded: does not regulate luciferase gene expression”.

B3: GM1: SEQ ID NO: 2; guanine aptamer upstream of mascRNA, 7-nucleotide leader in effector region stem (nucleic acid)
chain: CCTCATAAAGGCCAAGAAGGGCGGAAAGATCGCCGTGTAAGGATCCAAGACGAGCTGTACAAGTAAAGCGGCCGTAATGTATAATCGCGTGGATATGGCACGCAAGTTTCTACCGGGCACCGTAAATGTCCGACTACATTACGACGCTGGTGGCTGGCACTCCTGGTTTCCAGGACGGGGTTCAAGTCCCTGCGGTGTCTTTGCTTGGATCGGCCGCGACTCTAGAGTCGACCTGCAGGCATGCAAGCTTCAGCTGCTCGAGGGCCCAGATCTAATTCACCCCACCAGTGCAGGCTGCCTATCAG
In the case of B3, the “induction fold of luciferase expression” value was 2.9 fold; the “reduction in luciferase activity” value turned out to be 52%; the “luciferase activity as % of control construct” value was roughly 100%.

B4: GM2: SEQ ID NO: 3; guanine aptamer upstream of mascRNA, 6-nucleotide leader in effector region stem (nucleic acid)
chain: CCTCATAAAGGCCAAGAAGGGCGGAAAGATCGCCGTGTAAGGATCCAAGACGAGCTGTACAAGTAAAGCGGCCCGATCATATAATCGCGTGGATATGGCACGCAAGTTTCTACCGGGCACCGTAAATGTCCGACTATGGTCGACGCTGGTGGCTGGCACTCCTGGTTTCCAGGACGGGGTTCAAGTCCCTGCGGTGTCTTTGCTTGGATCGGCCGCGACTCTAGAGTCGACCTGCAGGCATGCAAGCTTCAGCTGCTCGAGGGCCCAGATCTAATTCACCCCACCAGTGCAGGCTGCCTATCAG
Consider B4, for which the “induction fold of luciferase expression” value is given as 1.9 fold and the “reduction in luciferase activity” value is reported as 40%.
